Where only a bound is given, the exact number is not on record here.

This experiment deals with human IgG (human). Nature of the experiment: BLI (Octet), gEgI on Ni-NTA sensor, hIgG in solution.
With “HSV2-gE_P319L V340R_gI (from UniProt P89475 21-416; P06764 21-256) (receptor)”, the dissociation constant Kd (in general, the constant that tells how readily two partners part at equilibrium) turned out to be 160 nM; the Response was 0.509 nm; the koff (usually the rate constant with which the complex falls apart) was 0.00141 s⁻¹; the on-rate constant (kon) – broadly, the second-order rate constant of association – was 8770 M⁻¹ s⁻¹.
Take “HSV2-gE_R314L F322A_gI (from UniProt P89475 21-416; P06764 21-256) (receptor)”: the dissociation constant Kd was determined as 303 nM, the Response turned out to be 0.603 nm, the koff was 0.00385 s⁻¹ and the kon was 12700 M⁻¹ s⁻¹.
Regarding “HSV2-gE_R314G V340W_gI (from UniProt P89475 21-416; P06764 21-256) (receptor)”, the dissociation constant (Kd) was 1010 nM, the Response was 0.144 nm, the koff was 0.00543 s⁻¹ and the association rate constant (kon) was determined as 5400 M⁻¹ s⁻¹.
“HSV2-gE_P317F V340W_gI (from UniProt P89475 21-416; P06764 21-256) (receptor)” returned a dissociation constant (Kd) of 577 nM, a Response of 0.116 nm, a koff of 0.00414 s⁻¹ and a kon of 7170 M⁻¹ s⁻¹.
Substance “HSV2-gE_P317K S338L_gI (from UniProt P89475 21-416; P06764 21-256) (receptor)” came in with a Kd of 252 nM, a Response of 0.334 nm, a koff of 0.0016 s⁻¹ and a kon of 6350 M⁻¹ s⁻¹.
In turn, “HSV2-gE_R314P P318I_gI (from UniProt P89475 21-416; P06764 21-256) (receptor)” came in with a Kd of 277 nM, a Response of 0.248 nm, an off-rate (koff) of 0.00223 s⁻¹ and a kon of 8040 M⁻¹ s⁻¹.
For “HSV2-gE_R314G F322P_gI (from UniProt P89475 21-416; P06764 21-256) (receptor)”, the Kd was found to be 181 nM, the Response worked out at 0.439 nm, the koff was found to be 0.00209 s⁻¹ and the kon worked out at 11500 M⁻¹ s⁻¹.
“HSV2-gE_P317S V340M_gI (from UniProt P89475 21-416; P06764 21-256) (receptor)” came in with an equilibrium dissociation constant (Kd) of 269 nM, a Response of 0.623 nm, an off-rate constant (koff) of 0.0039 s⁻¹ and an association rate constant (kon) of 14500 M⁻¹ s⁻¹.
Substance “HSV2-gE_R314G P318I_gI (from UniProt P89475 21-416; P06764 21-256) (receptor)” returned a dissociation constant Kd of 449 nM, a Response of 0.153 nm, a dissociation rate constant (koff) of 0.00278 s⁻¹ and a kon of 6200 M⁻¹ s⁻¹.
In turn, “HSV2-gE_R314P P318D_gI (from UniProt P89475 21-416; P06764 21-256) (receptor)” came in with a Kd of 222 nM, a Response of 0.306 nm, a koff of 0.00145 s⁻¹ and a kon of 6520 M⁻¹ s⁻¹.
Consider “HSV2-gE_R314L V340M_gI (from UniProt P89475 21-416; P06764 21-256) (receptor)”, for which the equilibrium dissociation constant (Kd) was determined as 452 nM, the Response worked out at 0.427 nm, the koff came out at 0.00456 s⁻¹ and the kon was found to be 10100 M⁻¹ s⁻¹.
“HSV2-gE_P317K S338G_gI (from UniProt P89475 21-416; P06764 21-256) (receptor)”: the Kd was found to be 238 nM, the Response is 0.198 nm, the koff came to 0.00167 s⁻¹ and the kon stood at 7030 M⁻¹ s⁻¹.
“HSV2-gE_P317F V340M_gI (from UniProt P89475 21-416; P06764 21-256) (receptor)” came in with a Kd of 291 nM, a Response of 0.259 nm, a dissociation rate constant (koff) of 0.00189 s⁻¹ and an association rate constant (kon) of 6510 M⁻¹ s⁻¹.
For “HSV2-gE_R314P V340R_gI (from UniProt P89475 21-416; P06764 21-256) (receptor)”, the Kd worked out at 459 nM, the Response was 0.351 nm, the koff turned out to be 0.00241 s⁻¹ and the association rate constant (kon) came out at 5260 M⁻¹ s⁻¹.
The substance “HSV2-gE_P318I S338G_gI (from UniProt P89475 21-416; P06764 21-256) (receptor)” registered a Kd of 335 nM, a Response of 0.237 nm, a koff of 0.00297 s⁻¹ and an on-rate constant (kon) of 8870 M⁻¹ s⁻¹.
In turn, “HSV2-gE_R314G P318R_gI (from UniProt P89475 21-416; P06764 21-256) (receptor)” registered an equilibrium dissociation constant (Kd) of 148 nM, a Response of 0.22 nm, a dissociation rate constant (koff) of 0.000833 s⁻¹ and an on-rate constant (kon) of 5640 M⁻¹ s⁻¹.
“HSV2-gE_P318D S338H_gI (from UniProt P89475 21-416; P06764 21-256) (receptor)” showed a Kd of 280 nM, a Response of 0.18 nm, a koff of 0.00215 s⁻¹ and a kon of 7690 M⁻¹ s⁻¹.
“HSV2-gE_R314P P318R_gI (from UniProt P89475 21-416; P06764 21-256) (receptor)” gave a Kd of 317 nM, a Response of 0.371 nm, a koff of 0.00199 s⁻¹ and an association rate constant (kon) of 6270 M⁻¹ s⁻¹.
Taken in the same sequence, the figures for “HSV2-gE_R314L F322I_gI (from UniProt P89475 21-416; P06764 21-256) (receptor)” were 274 nM, 0.433 nm, 0.00277 s⁻¹ and 10100 M⁻¹ s⁻¹.
As for “HSV2-gE_R314P F322P_gI (from UniProt P89475 21-416; P06764 21-256) (receptor)”, the Kd worked out at 283 nM, the Response turned out to be 0.561 nm, the koff came out at 0.00356 s⁻¹ and the kon was 12600 M⁻¹ s⁻¹.
With “HSV2-gE_R314L P318I_gI (from UniProt P89475 21-416; P06764 21-256) (receptor)”, the dissociation constant Kd amounted to 261 nM, the Response was determined as 0.294 nm, the koff is 0.00198 s⁻¹ and the kon is 7580 M⁻¹ s⁻¹.
As to “HSV2-gE_P317K V340R_gI (from UniProt P89475 21-416; P06764 21-256) (receptor)”, the Kd amounted to 241 nM, the Response came to 0.508 nm, the dissociation rate constant (koff) came out at 0.00163 s⁻¹ and the kon is 6740 M⁻¹ s⁻¹.
In the case of “HSV2-gE_R314G V340R_gI (from UniProt P89475 21-416; P06764 21-256) (receptor)”, the Kd turned out to be 394 nM, the Response was 0.439 nm, the off-rate (koff) was 0.00245 s⁻¹ and the kon stood at 6230 M⁻¹ s⁻¹.
With “HSV2-gE_P318D S338G_gI (from UniProt P89475 21-416; P06764 21-256) (receptor)”, the Kd stood at 330 nM, the Response stood at 0.143 nm, the off-rate (koff) came out at 0.00256 s⁻¹ and the kon amounted to 7750 M⁻¹ s⁻¹.
For “HSV2-gE_R314P V340W_gI (from UniProt P89475 21-416; P06764 21-256) (receptor)”, the equilibrium dissociation constant (Kd) worked out at 560 nM, the Response was 0.134 nm, the koff came out at 0.00355 s⁻¹ and the kon is 6340 M⁻¹ s⁻¹.
In turn, “HSV2-gE_P317F S338G_gI (from UniProt P89475 21-416; P06764 21-256) (receptor)” gave a Kd of 399 nM, a Response of 0.153 nm, a dissociation rate constant (koff) of 0.00248 s⁻¹ and a kon of 6220 M⁻¹ s⁻¹.
Regarding “HSV2-gE_P317F V340R_gI (from UniProt P89475 21-416; P06764 21-256) (receptor)”, the Kd was found to be 372 nM, the Response came out at 0.301 nm, the off-rate (koff) amounted to 0.00218 s⁻¹ and the on-rate (kon) came to 5880 M⁻¹ s⁻¹.
Taken in the same sequence, the figures for “HSV2-gE_R314P F322I_gI (from UniProt P89475 21-416; P06764 21-256) (receptor)” were 300 nM, 0.389 nm, 0.0036 s⁻¹ and 12000 M⁻¹ s⁻¹.
As to “HSV2-gE_H245S P319L_gI (from UniProt P89475 21-416; P06764 21-256) (receptor)”, the dissociation constant (Kd) is 292 nM, the Response is 0.323 nm, the dissociation rate constant (koff) amounted to 0.0019 s⁻¹ and the kon was determined as 6520 M⁻¹ s⁻¹.
“HSV2-gE_P318R S338L_gI (from UniProt P89475 21-416; P06764 21-256) (receptor)” came in with a Kd of 176 nM, a Response of 0.49 nm, an off-rate (koff) of 0.00138 s⁻¹ and a kon of 7870 M⁻¹ s⁻¹.
The like results for “HSV2-gE_P319G V340M_gI (from UniProt P89475 21-416; P06764 21-256) (receptor)” were, in that order, 297 nM, 0.393 nm, 0.00393 s⁻¹ and 13200 M⁻¹ s⁻¹.
“HSV2-gE_P319L V340W_gI (from UniProt P89475 21-416; P06764 21-256) (receptor)” had a dissociation constant Kd of 230 nM, a Response of 0.139 nm, a koff of 0.00217 s⁻¹ and a kon of 9450 M⁻¹ s⁻¹.
Substance “HSV2-gE_P317S V340W_gI (from UniProt P89475 21-416; P06764 21-256) (receptor)” gave a Kd of 351 nM, a Response of 0.131 nm, a koff of 0.00282 s⁻¹ and an on-rate (kon) of 8050 M⁻¹ s⁻¹.
On to “HSV2-gE_P317F S338L_gI (from UniProt P89475 21-416; P06764 21-256) (receptor)”, for which the dissociation constant (Kd) amounted to 225 nM, the Response came to 0.442 nm, the off-rate (koff) is 0.00165 s⁻¹ and the on-rate constant (kon) came to 7370 M⁻¹ s⁻¹.
For “HSV2-gE_R314L P318R_gI (from UniProt P89475 21-416; P06764 21-256) (receptor)”, the dissociation constant (Kd) was less than 0.001 nM, the Response was 0.202 nm, the off-rate (koff) is less than 1e-07 s⁻¹ and the kon stood at 8050 M⁻¹ s⁻¹.
On to “HSV2-gE_R314G F322A_gI (from UniProt P89475 21-416; P06764 21-256) (receptor)”, for which the equilibrium dissociation constant (Kd) was found to be 232 nM, the Response is 0.469 nm, the dissociation rate constant (koff) was determined as 0.00328 s⁻¹ and the kon turned out to be 14200 M⁻¹ s⁻¹.
With “HSV2-gE_P318D S338L_gI (from UniProt P89475 21-416; P06764 21-256) (receptor)”, the dissociation constant (Kd) stood at 163 nM, the Response turned out to be 0.303 nm, the off-rate (koff) was found to be 0.00107 s⁻¹ and the kon turned out to be 6560 M⁻¹ s⁻¹.
Take “HSV2-gE_R314L F322P_gI (from UniProt P89475 21-416; P06764 21-256) (receptor)”: the dissociation constant Kd amounted to 210 nM, the Response came out at 0.607 nm, the koff turned out to be 0.00255 s⁻¹ and the kon is 12100 M⁻¹ s⁻¹.

The record behind these values is patent US20220273789A1.
